Data published in publication PMC7003851.

T1: IRP1 wild-type (Homo sapiens, UniProt P21399 1-889)
T1 sequence: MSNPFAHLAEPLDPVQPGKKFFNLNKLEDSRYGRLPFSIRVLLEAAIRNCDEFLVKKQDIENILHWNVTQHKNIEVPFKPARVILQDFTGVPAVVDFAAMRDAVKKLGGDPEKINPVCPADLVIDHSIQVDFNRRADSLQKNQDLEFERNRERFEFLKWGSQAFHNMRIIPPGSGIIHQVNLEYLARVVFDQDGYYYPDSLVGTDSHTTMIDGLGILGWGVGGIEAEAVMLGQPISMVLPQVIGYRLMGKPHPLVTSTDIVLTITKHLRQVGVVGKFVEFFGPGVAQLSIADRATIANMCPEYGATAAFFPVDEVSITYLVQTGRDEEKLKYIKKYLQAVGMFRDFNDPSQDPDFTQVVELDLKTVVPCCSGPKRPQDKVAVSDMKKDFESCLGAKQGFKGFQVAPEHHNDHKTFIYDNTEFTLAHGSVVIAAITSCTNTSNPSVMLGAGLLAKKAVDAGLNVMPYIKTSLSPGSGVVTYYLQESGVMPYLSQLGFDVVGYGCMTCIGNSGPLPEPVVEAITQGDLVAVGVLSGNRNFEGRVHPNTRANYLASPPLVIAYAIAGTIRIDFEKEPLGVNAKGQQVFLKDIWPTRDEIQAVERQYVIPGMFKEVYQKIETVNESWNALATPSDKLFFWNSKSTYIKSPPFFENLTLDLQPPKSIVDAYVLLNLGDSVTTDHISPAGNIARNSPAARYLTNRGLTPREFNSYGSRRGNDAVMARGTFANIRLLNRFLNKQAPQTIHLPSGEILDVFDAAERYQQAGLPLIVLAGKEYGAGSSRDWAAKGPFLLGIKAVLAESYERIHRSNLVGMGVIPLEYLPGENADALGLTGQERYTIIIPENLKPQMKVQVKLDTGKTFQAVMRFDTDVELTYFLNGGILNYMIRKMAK


Legend:
[1] = molecular target: T1, IRP1 wild-type; test: EMSA
[2] = molecular target: T1, IRP1 wild-type; test: EMSA; remark: listed apart in the source

Binder | binding signal [1] | Kd [2] [nM]
UUUUUGUUUCCUGCUUCAAAGUGCUUGGACGGAAC (structured_RNA) [IRE-ΔC] | ~5 fold unbound RNA fraction vs wt-IRE | –
UUUUUGUUUCCUGCUUCAACAGUGCUUGGACGGAAC (structured_RNA) [wt-IRE (FTH-IRE)] | – | 18 ± 5
